Assay results taken from article PMC5882232.

Biological target: TRPA1b-FLAG (mouse TRPA1b, splice variant of TRPA1 lacking exon 20, tagged with FLAG) (mouse)
Assay: native gel or EMSA

Work on “TRPA1b-FLAG (mouse TRPA1b, splice variant of TRPA1 lacking exon 20, tagged with FLAG) (natural protein)” yielded a stoichiometry N of 4.
